According to patent publication US20250289891A1 (AUTOLUS, published 2025):

T1: Plate bound FcRH5 antigen (UniProt Q96RD9)
T1 sequence (looked up): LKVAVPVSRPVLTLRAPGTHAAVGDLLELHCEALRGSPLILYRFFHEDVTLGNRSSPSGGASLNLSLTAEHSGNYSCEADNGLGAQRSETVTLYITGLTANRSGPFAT

T2: Recombinant purified FcRH5 Ig-8 domain (UniProt Q96RD9 743-850, limits assumed)
T2 construct: domain: Ig8
T2 sequence (looked up): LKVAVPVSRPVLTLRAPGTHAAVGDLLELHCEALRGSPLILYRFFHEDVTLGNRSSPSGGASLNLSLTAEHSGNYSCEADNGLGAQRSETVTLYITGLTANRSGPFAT


Key:
[1] = biological target: T1, Plate bound FcRH5 antigen; test: cell-based or functional assay
[2] = biological target: T2, Recombinant purified FcRH5 Ig-8 domain; test: SPR, Biacore 8k, VHH-mIgG2a Fc captured, FcRH5 Ig8 as analyte, 1:1 Langmuir fit, 25 C; footnote: kd outside instrument limits
Protocol: (§1) Recombinant anti-FcRH5 antibodies in mouse IgG2a format were captured on flow cell 2 on a Series S CM5 chip (GE Healthcare), functionalised with anti-mouse capture kit according to manufacturer's recommendations (GE Healthcare). Antibodies were captured to a density of 160 RU using a Biacore 8k instrument. HBS-P+ buffer was used as running buffer in all experimental conditions. Recombinant purified FcRH5 Ig-8 domain at known concentrations (500 nM with 2-fold serial dilutions) used as the ‘analyte’ and injected over the respective flow cells with 150s contact time and 500s dissociation at 30 μl/minute of flow rate with a constant temperature of 25° C. In each experiment, flow cell 1 was unmodified and used for reference subtraction. A ‘0 concentration’ sensogram of buffer alone was used as a double reference subtraction to factor for drift. Data were fit to a 1:1 Langmuir binding model. Since a capture system was used, a local maximal analytical response (Rmax) parameter was used for the data fitting in each case.

[3] = biological target: T2, Recombinant purified FcRH5 Ig-8 domain; test: SPR, Biacore 8k, VHH-mIgG2a Fc captured by anti-mouse kit on CM5, FcRH5 Ig8 as analyte (500 nM, 2-fold dilutions), 1:1 Langmuir fit, 25 C
Protocol: as §1

Row | Binder | EC50 (µg/ml) of percentage Nur77 activation by plate bound FcRH5 antigen (µg/ml FcRH5 coating) [1] | Nur77-mClover positive cells after 24 h 10 µg/ml (% upregulation) [1] [%] | Kd [2] [nM] | koff [2] [s⁻¹] | kon [3] [M⁻¹ s⁻¹]
1 | Anti-FcRH5 VHH-CAR 66833 (VHH of AU60464), on Jurkat T cells (protein, not shown: large carriers) QVQLQQSGGGLVQPGGSLRLSCAAPGNIFRLNGTGWYRQAPGKQRELVAHITSGGNTDYADSVKGRFTISRDNAKNTVYLQMNSLKPEDTAVYYCNAIPFRLSWGQGTQVTVS | 1.31 | 26.6 |  |  | 
2 | Anti-FcRH5 VHH-CAR 66842 (VHH of AU60370), on Jurkat T cells (protein, not shown: large carriers) QVQLQESGGGSVQPGGSLSLSCAASGFTFSNYAMSWVRQAPGKGPEWVAVINSDGGTASSAGSVRGRFTISRDNAKNTLYLQMNRLKPEDTAVYYCAANRGFCAGVRCLEYQYWGQGTQVTVS | 1.46 | 36.8 |  |  | 
3 | Anti-FcRH5 VHH-CAR 66843 (VHH of AU60382), on Jurkat T cells (protein, not shown: large carriers) QVQLQESGGGLVQAGGSLIVSCAASGRTFSINAMAWFRQAPGKEREFVAAIGGSGRVSSTSYADFVKGRFTISRDNAKNTVYLRMNNLEPEDTAVYYCAARRDYLPFPPESYDYWGQGTQVTVA | 1.97 | 29.7 |  |  | 
4 | Anti-FcRH5 VHH-CAR 66840 (VHH of AU60471), on Jurkat T cells (protein, not shown: large carriers) QVQLQESGGGLVQAGGSLRLSCAASGSIFSINAMGWYRQAPGKQRELVAFITSGGSTNYADSVKGRFTISRDNAKNTVYLQMNSLKPEDTAVYYCNALGGFVPSYGWGQGTQVTVS | 1.62 | 40.7 |  |  | 
5 | Anti-FcRH5 VHH-Fc AU60387 (AbVec.aFcRH5.dAb-MIgG2a-Fc.Clone.C01) (Fc fusion, VHH fused to murine IgG2a Fc; not shown: murine IgG2a Fc domain) QVQLQESGGGLVQAGGSLRLSCAASGRTFSTYGMGWFRQAPGKEREFVAAISRSGGATAYAASVKGRFTISRDDVKNTLYLQMNSLKPEDTAVYHCAGTRRAFSTGLRDYDYWGQGIQVTVS |  |  | < 0.206 | < 1e-05 | 48600
6 | Anti-FcRH5 VHH-Fc AU60390 (AbVec.aFcRH5.dAb-MIgG2a-Fc.Clone.C06) (Fc fusion, not shown: murine IgG2a Fc domain) QVQLQQSGGGLVQAGDSLRLSCAASGRTFSNSTMGWFRQAPGKERKFVAVISWSGGTYAYAESVKGRFTISRDNAKNTVYLQMNSLKPEDTAVYYCAAARKGWSTRGDDYDYWGQGTQVTVS |  |  | < 0.2 | < 1e-05 | 50000
